Test results from patent publication US20070224188A1.

Each substance was assayed against biotin-labeled soluble FcRn (assay: FcRn ELISA pH 6.0).

Chain of anti-CD20 antibody, IgG1 Fc region, wild type (a, z) (heavy, part): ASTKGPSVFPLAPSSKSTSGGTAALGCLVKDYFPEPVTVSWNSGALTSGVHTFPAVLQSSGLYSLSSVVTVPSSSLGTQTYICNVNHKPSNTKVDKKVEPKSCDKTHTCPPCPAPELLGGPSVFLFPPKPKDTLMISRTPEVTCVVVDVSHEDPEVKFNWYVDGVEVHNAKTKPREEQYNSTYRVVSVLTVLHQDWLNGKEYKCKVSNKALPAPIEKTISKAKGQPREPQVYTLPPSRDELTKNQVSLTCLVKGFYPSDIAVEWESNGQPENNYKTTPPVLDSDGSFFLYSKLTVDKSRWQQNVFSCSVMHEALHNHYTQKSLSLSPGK

Row | Substance | FcRn pH6.0 (% of wild type) | FcRn6.0 (% of wild type)
1 | anti-CD20 IgG1 K439H (antibody) | 99 | –
2 | anti-CD20 IgG1 P247N (antibody) | 41 | –
3 | anti-CD20 IgG1 S254H (antibody) | 0 | –
4 | anti-CD20 IgG1 258D272R (antibody) | – | 383
5 | anti-CD20 IgG1 E380N (antibody) | 142 | –
6 | anti-CD20 IgG1 L314V (antibody) | 21 | –
7 | anti-CD20 IgG1 S440K (antibody) | 132 | –
8 | anti-CD20 IgG1 A339H (antibody) | 107 | –
9 | anti-CD20 IgG1 A339Y (antibody) | 92 | –
10 | anti-CD20 IgG1 V279K (antibody) | 79 | –
11 | anti-CD20 IgG1 N315P (antibody) | 14 | –
12 | anti-CD20 IgG1 E318P (antibody) | 75 | –
13 | anti-CD20 IgG1 D265H (antibody) | 79 | –
14 | anti-CD20 IgG1 T256N (antibody) | 229 | –
15 | anti-CD20 IgG1 S254N (antibody) | 8 | –
16 | anti-CD20 IgG1 I377K (antibody) | 167 | –
17 | anti-CD20 IgG1 I332E (antibody) | 86 | –
18 | anti-CD20 IgG1 E283T (antibody) | 143 | –
19 | anti-CD20 IgG1 T256W (antibody) | 14 | –
20 | anti-CD20 IgG1 D376P (antibody) | 203 | –
21 | anti-CD20 IgG1 E430A (antibody) | 179 | –
22 | anti-CD20 IgG1 V264S (antibody) | 78 | –
23 | anti-CD20 IgG1 E382Q (antibody) | 162 | –
24 | anti-CD20 IgG1 T256M (antibody) | 35 | –

Row | Substance | FcRn pH6.0 (% of wild type) | FcRn6.0 (% of wild type)
25 | anti-CD20 IgG1 V279D (antibody) | 367 | –
26 | anti-CD20 IgG1 E430L (antibody) | 242 | –
27 | anti-CD20 IgG1 D376E (antibody) | 82 | –
28 | anti-CD20 antibody, IgG1 Fc region, wild type (a, z) | 100 | 100
29 | anti-CD20 IgG1 P343A (antibody) | 110 | –
30 | anti-CD20 IgG1 K317T (antibody) | 49 | –
31 | anti-CD20 IgG1 L328V (antibody) | 101 | –
32 | anti-CD20 IgG1 S440A (antibody) | 82 | –
33 | anti-CD20 IgG1 T256R (antibody) | 33 | –
34 | anti-CD20 IgG1 272R376V (antibody) | – | 369
35 | anti-CD20 IgG1 V279W (antibody) | 162 | –
36 | anti-CD20 IgG1 P238W (antibody) | 87 | –
37 | anti-CD20 IgG1 I332Q (antibody) | 98 | –
38 | anti-CD20 IgG1 S254R (antibody) | 14 | –
39 | anti-CD20 IgG1 A339E (antibody) | 75 | –
40 | anti-CD20 IgG1 S254Y (antibody) | 0 | –
41 | anti-CD20 IgG1 Q311R (antibody) | 14 | –
42 | anti-CD20 IgG1 I332W (antibody) | 123 | –
43 | anti-CD20 IgG1 A339K (antibody) | 83 | –
44 | anti-CD20 IgG1 268E332E (antibody) | – | 88
45 | anti-CD20 IgG1 E283S (antibody) | 143 | –
46 | anti-CD20 IgG1 258D307E (antibody) | – | 237
47 | anti-CD20 IgG1 D265S (antibody) | 66 | –

Further lines, results first:

Row | FcRn pH6.0 (% of wild type) | FcRn6.0 (% of wild type) | Substance
48 | 304 | – | anti-CD20 IgG1 E318T (antibody)
49 | 97 | – | anti-CD20 IgG1 Q311S (antibody)
50 | – | 94 | anti-CD20 IgG1 332E440Y (antibody)
51 | – | 400 | anti-CD20 IgG1 283R307E (antibody)
52 | 77 | – | anti-CD20 IgG1 P343V (antibody)
53 | 320 | – | anti-CD20 IgG1 E272K (antibody)
54 | 56 | – | anti-CD20 IgG1 R292I (antibody)
55 | – | 415 | anti-CD20 IgG1 258D376V (antibody)
56 | 96 | – | anti-CD20 IgG1 T250K (antibody)
57 | 256 | – | anti-CD20 IgG1 V279G (antibody)
58 | 964 | – | anti-CD20 IgG1 M252Y (antibody)
59 | 77 | – | anti-CD20 IgG1 H429F (antibody)
60 | 61 | – | anti-CD20 IgG1 H429A (antibody)
61 | 122 | – | anti-CD20 IgG1 V279M (antibody)
62 | 546 | – | anti-CD20 IgG1 D312P (antibody)
63 | – | 409 | anti-CD20 IgG1 257I311I (antibody)
64 | 214 | – | anti-CD20 IgG1 V279A (antibody)
65 | 437 | – | anti-CD20 IgG1 Q311I (antibody)
66 | 115 | – | anti-CD20 IgG1 P238L (antibody)
67 | – | 268 | anti-CD20 IgG1 256P311I (antibody)
68 | 7 | – | anti-CD20 IgG1 S254A (antibody)
69 | 73 | – | anti-CD20 IgG1 E380D (antibody)
70 | 242 | – | anti-CD20 IgG1 V279S (antibody)

Row | FcRn pH6.0 (% of wild type) | FcRn6.0 (% of wild type) | Substance
71 | 72 | – | anti-CD20 IgG1 P238H (antibody)
72 | 78 | – | anti-CD20 IgG1 I332D (antibody)
73 | 98 | – | anti-CD20 IgG1 S440V (antibody)
74 | 85 | – | anti-CD20 IgG1 R292A (antibody)
75 | 94 | – | anti-CD20 IgG1 P238I (antibody)
76 | 109 | – | anti-CD20 IgG1 V379T (antibody)
77 | 38 | – | anti-CD20 IgG1 Q311D (antibody)
78 | 32 | – | anti-CD20 IgG1 S254T (antibody)
79 | 95 | – | anti-CD20 IgG1 A339S (antibody)
80 | 81 | – | anti-CD20 IgG1 P247S (antibody)
81 | 116 | – | anti-CD20 IgG1 D376F (antibody)
82 | 102 | – | anti-CD20 IgG1 S267K (antibody)
83 | – | 79 | anti-CD20 IgG1 256P314Y440Y (antibody)
84 | 78 | – | anti-CD20 IgG1 D376L (antibody)
85 | – | 349 | anti-CD20 IgG1 286F376V (antibody)
86 | 282 | – | anti-CD20 IgG1 E283R (antibody)
87 | 233 | – | anti-CD20 IgG1 T307A (antibody)
88 | – | 304 | anti-CD20 IgG1 257I430Q (antibody)
89 | 867 | – | anti-CD20 IgG1 P257N (antibody)
90 | 127 | – | anti-CD20 IgG1 I332L (antibody)
91 | 81 | – | anti-CD20 IgG1 S440Q (antibody)
92 | 281 | – | anti-CD20 IgG1 E430V (antibody)
